The values that follow come from the DeepSol protein solubility set.

This series in a line: soluble on expression in E. coli; label from the status in PepcDB or PDB records.
In the case of “QNKNSVELDGGAIFKNDKLIDKMDKSETEAYNFMIGKVSSGSMEVLNPETNRDFISLWILNSKTTTKGKFYGGKFHVKKIVNVKVAFLESQSPITYNKYMQKQIEQNAEKNIINNCNKIFNKYKEKNEDIFNVRDVYENIYKKGSPDIIKNTVIDIEPHVQIERSGKASTF”, the “soluble on expression in E. coli” value is on record as “not soluble”.
“MAHHHHHHMRSISTGSGANLQKPSWIAQLCSDAQKSEKTISCDVKVYDELSWRRRRFSFDKELWDPARMSSIVRRRLCLGNEEAEYTVIGEAFAFADREDSPVVNEPQHSCKLLWDHNSSVEKLLIQISDHFPPLLWYAVKPTLESLKRIFSEFLDVDAEHMKKNLPYYESVQNAMETSTQERLGVTLSPTSVKDRFVADMRRRDPKDLELDYPCEYSVFLGTSPHFRLVEDRMMKSNPFVFGWPLLLSDGNEHLDGTPLRMAAFRTVYSKSLLMFHTRLDLQVDHRLASSEAGEETLLDVPIFCNINYPKNTRLCGGKPLVQRFNTVMGTTYPLDTPVDILAALAKEQCVKGPNELLEELRFLTAAAERAPDEERVFRISDDQLSANRIVGQLAYTIIYVALVNYDRFIKDVFDVYKTHRSDMVRVACARGASIVGRPDLIEQLISAEREGPCKNMLRGVVTTP”: the “soluble on expression in E. coli” value was “not soluble”.
Regarding “MSSPSKRREMDMMKLMMSDYKVETINDGMQEFYVEFNGPKDSLYQGGVWKIRVELPDAYPYKSPSVGFITKIYHPNVDELSGSVCLDVINQTWSPMFDLVNVFETFLPQLLLYPNPSDPLNGEAAALMMRDRPAYEQRVKEYCEKYAKPGEGSEDKSSDEELSEEEYGSDNEDDDDDDVAIAGKPDP”, the “soluble on expression in E. coli” value is recorded as “not soluble”.
As to “MAHHHHHHMSFKEMRLAFEGSKNIYESSLLTFKGVDGYDVYNCSLLFQYKGKHHLFGRFERREKSSDSRVRLFVETGKDEYTVVPDQLTYQLEDPFVSKVQGSLFFGGTQVIKSGGNVTGYFCDFYHGMPQLLTYYTTGPDLMRSIRIVQLADGTIGIFSCHKTEGSCLIGFTTVNSLNEVTREVIAEAKPINNAPFLGAWGGVNQAYLLSSGNIGCICHHGYLDKDANGEQRNVCCITSFVYDPKRNNTHTFQLIGTRGCFPDCPSKSPSVADCAFASGIVMREDGKCDLYSGLGDTHEGRITIDYPFKGYGTVVNDLVF”, the “soluble on expression in E. coli” value was “soluble”.
With “MSVNMDELRHQVMINQFVLAAGCAADQAKQLLQAAHWQFETALSTFFQETNIPNSHHHH” the entry was “soluble”.
With “MGSDKIHHHHHHMILDTLENLAHYTHLGPRIAKALQHLKETDFTQLPVGNYELEGKDIFVIVNDYETKPREVEPFEVHRKYIDVQYVVSGEEEFGYLPLADQTPSKPYYDKHDYAEFDYESNKARAAFIPFKAGMFALFFPQDMHMPGVSATPQKVRKVVIKVKI” the entry was “not soluble”; with “DPDTRIPVINLEDGTRLVGEDAPKNKDLVEWLKLHPTYTVDMPSYVPKNADVLFSSFQKPKQKRHRCRNPNKLDINTLTGEERVPVVNKRNGKKMGGAMAPPMKDLPRWLEENPEFAVAPDWTD”, “soluble”.
“KFDESALVPEDQFLAQHPGPATIRVSKPNENDGQFMEITVQSLSENVGSLKEKIAGEIQIPANKQKLSGKAGFLKDNMSLAHYNVGAGEILTLSLRER”: the “soluble on expression in E. coli” value is “soluble”.
As for “MSLRIAIVGAGALGLYYGALLQRSGEDVHFLLRRDYEAIAGNGLKVFSINGDFTLPHVKGYRAPEEIGPMDLVLVGLKTFANSRYEELIRPLVEEGTQILTLQNGLGNEEALATLFGAERIIGGVAFLCSNRGEPGEVHHLGAGRIILGEFLPRDTGRIEELAAMFRQAGVDCRTTDDLKRARWEKLVWNIPFNGLCALLQQPVNLILARDVSRKLVRGIMLEVIAGANAQGLATFIADGYVDDMLEFTDAMGEYKPSMEIDREEGRPLEIAAIFRTPLAYGAREGIAMPRVEMLATLLEQATGEGHHHHHH”, the “soluble on expression in E. coli” value is listed as “soluble”.
